Source: patent US20250295111A1, “ANTIMICROBIAL PEPTIDES OF ACTI[…] METHODS OF USE THEREOF” (THE REGENTS OF THE UNIVERSITY OF CALIFORNIA, priority 2023, published 2025)

Test system: Saccharomyces cerevisiae
Assay: Antimicrobial peptide inhibition assay (filter paper disk on YPD agar plate, zone of inhibition)
Type: cell-based
Details: protein extract from recombinant E. coli BL21 (DE3) overexpressing the AMP, 6-mm filter paper disk on YPD agar plate, 30° C. for 24 h
Description: A 102 amino acid AMP candidate from Streptosporangium becharense DSM 46887 (GenBank ID: MBB5817359.1) with a predicted molecular weight of 11.2 kDa, pI of 8.67 and charge of 3.5, was cloned in E. coli for functional validation. The sequence was codon optimized and sent to Twist Biosciences (San Francisco, CA) for synthesis and cloned into a pET-21 (+) expression vector. The plasmid DNA (pET-21 (+)_AMP_S.be) was then transferred into E. coli BL21 (DE3) strain with […] carbenicillin (MilliporeSigma, Burlington, MA) selection. To overexpress the short peptide, 100 mL of E. coli BL21 (DE3) harboring the recombinant plasmid was cultured in Luria-Bertani broth containing […] of carbenicillin at 37° C. until the mid-exponential phase. The overexpression was induced by addition of 0.1 mM isopropyl-b-D-thiogalactopyranoside (MilliporeSigma, Burlington, MA) at 25° C. and 120 rpm for 16 h. […]
Yeast Saccharomyces cerevisiae was used for the antimicrobial activity assessment with proteins extracted from the recombinant E. coli. […] After incubation at 30° C. for 24 h, the antimicrobial activity of the short peptide was determined by appearance of the zone of inhibition. To confirm the overexpression of the short peptide, the protein extract was analyzed using SDS-PAGE gel (12% Mini-PROTEAN_TGXTM Precast Gel, Bio-Rad Laboratories, Hercules, CA). […]

B1: AMP candidate from Streptosporangium becharense DSM 46887: 102 amino acid AMP candidate with signal peptide from Streptosporangium becharense DSM 46887, overexpressed in E. coli (protein)
chain: MKRIFLVPALTAGIFALTTGAAYASQYIAYEGPGFTGRSVLIDACGPSNIPYHGSYKWYGDGQSGRMYNQPNAHGVMHFRLPSNNNAEQRTPVGWQSIFIEC
modifications: Streptosporangium becharense
notes: 102 amino acid AMP candidate with signal peptide from Streptosporangium becharense DSM 46887, overexpressed in E. coli
- antimicrobial activity determined by appearance of the zone of inhibition: Inhibition of Saccharomyces cerevisiae is demonstrated
- antimicrobial activity determined by appearance of the zone of inhibition (listed as AMP candidate of Streptosporangium becharense DSM 46887): Inhibition of Saccharomyces cerevisiae
